# Literature values as cited in article PMC2990782 (Gene therapy, 2010).
# Details: i.v. dosed polyplex; ref [22]
substance,measurement,value
PEG-Cys-Trp-Lys18,time to complete metabolism of plasmid DNA in the circulation,≤ 3 min
